The source of these data is patent publication US20110020273A1 (published 2011).

For this experiment, the target named is T1, CD20 (human, UniProt P11836 1-297).
T1 sequence (looked up): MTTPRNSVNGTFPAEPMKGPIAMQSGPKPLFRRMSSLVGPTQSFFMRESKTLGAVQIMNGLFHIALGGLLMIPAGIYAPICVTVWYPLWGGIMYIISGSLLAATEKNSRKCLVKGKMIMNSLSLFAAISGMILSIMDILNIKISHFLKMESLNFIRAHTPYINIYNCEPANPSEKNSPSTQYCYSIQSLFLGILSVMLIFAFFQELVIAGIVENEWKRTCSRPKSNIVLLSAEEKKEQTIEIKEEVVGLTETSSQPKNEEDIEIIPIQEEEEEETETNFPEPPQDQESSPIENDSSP
The experiment in a line: cell-based or functional assay.

B1: veltuzumab (antibody, V domains shown)
VH: QVQLQQSGAEVKKPGSSVKVSCKASGYTFTSYNMHWVKQAPGQGLEWIGAIYPGMGDTSYNQKFKGKATLTADESTNTAYMELSSLRSEDTAFYYCARSTYYGGDWYFDVWGQGTTVTVSS
VL: DIQLTQSPSSLSASVGDRVTMTCRASSSVSYIHWFQQKPGKAPKPWIYATSNLASGVPVRFSGSGSGTDYTFTISSLQPEDIATYYCQQWTSNPPTFGGGTKLEIK
Consider B1, for which the “EC50, in vitro proliferation of Jeko-1 cells” value worked out at 1.5 nM.
